# Where no end group is shown, it is not given here. The star is where a group is joined. Biotin = O=C1N[C@H]2[C@H](CS[C@H]2CCCCC(=O)*)N1
# B1: rabbit vitronectin (other)
# chain: DQESCKDRCTEGFNANRKCQCDELCSYYQSCCADYAAECKPQVTRGDVFTMPEDEYGPYDYIEQTKDNASVHAQPESPTVGQEPTLSPDLQTEGGAEPTHEVPLEPEMETLRPEGEDLQAGTTELGTSASPAEEELCSGKPFDAFTDLKNGSLFAFRGQYCYELDETAVRPGYPKLIQDVWGIEGPIDAAFTRINCQGKTYLFKGSQYWRFEDGILDPDYPRNISEGFSGIPDNVDAAFALPAHSYSGRERVYFFKGDKYWEYQFQQQPSQEECEGSSLSAVFEHFAMLHRDSWEDIFKLLFWGRPSGGARQPQFISRDWHGVPGKVDAAMAGRIYISGLTPSPSAKKQKSRRRSRKRYRSRYGRGRSQNSRRLSRSISRLWFSSEEVSLGPYNYEDYETSWLKPATSEPIQSVYFFSGDKYYRVNLRTQRVDTVNPPYPRSIAQYWLGCPAPGGQ
# notes: also called rabbit Vn
# B2: Neisseria meningitidis Hsf (Msf) of strain H44/76, expressed on meningococci (other)
# chain: NNEEQEEDLYLDPVQRTVAVLIVNSDKEGTGEKEKVEENSDWAVYFNEKGVLTAREITLKAGDNLKIKQNGTNFTYSLKKDLTDLTSVGTEKLSFSANGNKVNITSDTKGLNFAKETAGTNGDTTVHLNGIGSTLTDTLLNTGATTNVTNDNVTDDEKKRAASVKDVLNAGWNIKGVKPGTTASDNVDFVRTYDTVEFLSADTKTTTVNVESKDNGKKTEVKIGAKTSVIKEKDGKLVTGKDKGENGSSTDEGEGLVTAKEVIDAVNKAGWRMKTTTANGQTGQADKFETVTSGTNVTFASGKGTTATVSKDDQGNITVMYDVNVGDALNVNQLQNSGWNLDSKAVAGSSGKVISGNVSPSKGKMDETVNINAGNNIEITRNGKNIDIATSMTPQFSSVSLGAGADAPTLSVDGDALNVGSKKDNKPVRITNVAPGVKEGDVTNVAQLKGVAQNLNNRIDNVDGNARAGIAQAIATAGLVQAYLPGKSMMAIGGGTYRGEAGYAIGYSSISDGGNWIIKGTASGNSRGHFGASASVGYQW
# notes: Opc-deficient variants or mutants isolate the Msf effect; also called NhhA; NMB0992
# B3: mouse vitronectin (other)
# chain: DQESCKGRCTQGFMASKKCQCDELCTYYQSCCADYMEQCKPQVTRGDVFTMPEDDYWSYDYVEEPKNNTNTGVQPENTSPPGDLNPRTDGTLKPTAFLDPEEQPSTPAPKVEQQEEILRPDTTDQGTPEFPEEELCSGKPFDAFTDLKNGSLFAFRGQYCYELDETAVRPGYPKLIQDVWGIEGPIDAAFTRINCQGKTYLFKGSQYWRFEDGVLDPGYPRNISEGFSGIPDNVDAAFALPAHRYSGRERVYFFKGKQYWEYEFQQQPSQEECEGSSLSAVFEHFALLQRDSWENIFELLFWGRSSDGAREPQFISRNWHGVPGKVDAAMAGRIYVTGSLSHSAQAKKQKSKRRSRKRYRSRRGRGHRRSQSSNSRRSSRSIWFSLFSSEESGLGTYNNYDYDMDWLVPATCEPIQSVYFFSGDKYYRVNLRTRRVDSVNPPYPRSIAQYWLGCPTSEK
# notes: also called mouse Vn
# B4: control peptide GS-22 (peptide)
# peptide: Biotin-GSNENQKTVKAESVPNMSFDQS
# B5: biotinylated vitronectin peptide AR-36 (Vn residues A360-R395, heparin-binding region) (peptide)
# peptide: Biotin-APRPSLAKKQRFRHRNRKGYRSQRGHSRGRNQNSRR
# notes: Synthetic peptide immobilised on extravidin coated plates; also called HBD peptide
# B6: Neisseria meningitidis Opc of strain H44/76, expressed on meningococci (other)
# chain: AQELQTANEFTVHTDLSSISSTRAFLKEKHKAAKHISVRADIPFDANQGIRLEAGFGRSKKNIINLETDENKLGKTKNVKLPTGVPENRIDLYTGYTYTQTLSDSLNFRVGAGLGFESSKDSIKTTKHTLHSSRQSWLAKVHADLLSQLGNGWYINPWSEVKFDLNSRYKLNTGVTNLKKDINQKTNGWGFGLGANIGKKLGESASIEAGPFYKQRTYKESGEFSVTTKSGDVSLTIPKTSIREYGLRVGIKF
# notes: also called Opc-expressing Nm; (GB) Opc+Δµ
# B7: biotinylated vitronectin peptide VA-26 (amino acids 43-68) (peptide)
# peptide: Biotin-VTRGDVFTMPEDEYTVYDDGEEKNNA
# notes: Synthetic peptide of human vitronectin V43-A68
# Assays:
# [1] = biological target: B2; assay: ELISA, bacteria on immobilised heparin-affinity purified vitronectin
# [2] = biological target: T1, native human vitronectin preparation (nVn) (human, UniProt P04004 20-478); assay: binding of bacteria to nVn against aVn as reference
# T1 construct: Same protein as m4 in the native, closed conformation; also called native Vn
# T1 sequence (P04004 20-478 limits assumed): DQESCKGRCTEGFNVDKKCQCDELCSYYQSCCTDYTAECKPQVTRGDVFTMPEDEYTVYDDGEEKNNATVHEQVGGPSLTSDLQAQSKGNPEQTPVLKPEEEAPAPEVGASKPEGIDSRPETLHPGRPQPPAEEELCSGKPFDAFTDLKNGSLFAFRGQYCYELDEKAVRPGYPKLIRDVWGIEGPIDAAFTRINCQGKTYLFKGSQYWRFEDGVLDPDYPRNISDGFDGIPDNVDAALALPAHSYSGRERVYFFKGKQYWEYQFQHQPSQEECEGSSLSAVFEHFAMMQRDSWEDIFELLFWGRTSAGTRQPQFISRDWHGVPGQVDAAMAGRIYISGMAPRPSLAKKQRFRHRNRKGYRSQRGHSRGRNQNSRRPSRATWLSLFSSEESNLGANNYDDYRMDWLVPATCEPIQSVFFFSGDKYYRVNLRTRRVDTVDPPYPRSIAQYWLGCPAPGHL
# [3] = biological target: human fibronectin (from serum) (human, UniProt P02751 32-2296); assay: bacteria incubated in decomplemented serum, dot blot with specific antibodies
# Sequence of human fibronectin (from serum) (P02751 other isoform, or with tags, fused parts or gaps limits assumed): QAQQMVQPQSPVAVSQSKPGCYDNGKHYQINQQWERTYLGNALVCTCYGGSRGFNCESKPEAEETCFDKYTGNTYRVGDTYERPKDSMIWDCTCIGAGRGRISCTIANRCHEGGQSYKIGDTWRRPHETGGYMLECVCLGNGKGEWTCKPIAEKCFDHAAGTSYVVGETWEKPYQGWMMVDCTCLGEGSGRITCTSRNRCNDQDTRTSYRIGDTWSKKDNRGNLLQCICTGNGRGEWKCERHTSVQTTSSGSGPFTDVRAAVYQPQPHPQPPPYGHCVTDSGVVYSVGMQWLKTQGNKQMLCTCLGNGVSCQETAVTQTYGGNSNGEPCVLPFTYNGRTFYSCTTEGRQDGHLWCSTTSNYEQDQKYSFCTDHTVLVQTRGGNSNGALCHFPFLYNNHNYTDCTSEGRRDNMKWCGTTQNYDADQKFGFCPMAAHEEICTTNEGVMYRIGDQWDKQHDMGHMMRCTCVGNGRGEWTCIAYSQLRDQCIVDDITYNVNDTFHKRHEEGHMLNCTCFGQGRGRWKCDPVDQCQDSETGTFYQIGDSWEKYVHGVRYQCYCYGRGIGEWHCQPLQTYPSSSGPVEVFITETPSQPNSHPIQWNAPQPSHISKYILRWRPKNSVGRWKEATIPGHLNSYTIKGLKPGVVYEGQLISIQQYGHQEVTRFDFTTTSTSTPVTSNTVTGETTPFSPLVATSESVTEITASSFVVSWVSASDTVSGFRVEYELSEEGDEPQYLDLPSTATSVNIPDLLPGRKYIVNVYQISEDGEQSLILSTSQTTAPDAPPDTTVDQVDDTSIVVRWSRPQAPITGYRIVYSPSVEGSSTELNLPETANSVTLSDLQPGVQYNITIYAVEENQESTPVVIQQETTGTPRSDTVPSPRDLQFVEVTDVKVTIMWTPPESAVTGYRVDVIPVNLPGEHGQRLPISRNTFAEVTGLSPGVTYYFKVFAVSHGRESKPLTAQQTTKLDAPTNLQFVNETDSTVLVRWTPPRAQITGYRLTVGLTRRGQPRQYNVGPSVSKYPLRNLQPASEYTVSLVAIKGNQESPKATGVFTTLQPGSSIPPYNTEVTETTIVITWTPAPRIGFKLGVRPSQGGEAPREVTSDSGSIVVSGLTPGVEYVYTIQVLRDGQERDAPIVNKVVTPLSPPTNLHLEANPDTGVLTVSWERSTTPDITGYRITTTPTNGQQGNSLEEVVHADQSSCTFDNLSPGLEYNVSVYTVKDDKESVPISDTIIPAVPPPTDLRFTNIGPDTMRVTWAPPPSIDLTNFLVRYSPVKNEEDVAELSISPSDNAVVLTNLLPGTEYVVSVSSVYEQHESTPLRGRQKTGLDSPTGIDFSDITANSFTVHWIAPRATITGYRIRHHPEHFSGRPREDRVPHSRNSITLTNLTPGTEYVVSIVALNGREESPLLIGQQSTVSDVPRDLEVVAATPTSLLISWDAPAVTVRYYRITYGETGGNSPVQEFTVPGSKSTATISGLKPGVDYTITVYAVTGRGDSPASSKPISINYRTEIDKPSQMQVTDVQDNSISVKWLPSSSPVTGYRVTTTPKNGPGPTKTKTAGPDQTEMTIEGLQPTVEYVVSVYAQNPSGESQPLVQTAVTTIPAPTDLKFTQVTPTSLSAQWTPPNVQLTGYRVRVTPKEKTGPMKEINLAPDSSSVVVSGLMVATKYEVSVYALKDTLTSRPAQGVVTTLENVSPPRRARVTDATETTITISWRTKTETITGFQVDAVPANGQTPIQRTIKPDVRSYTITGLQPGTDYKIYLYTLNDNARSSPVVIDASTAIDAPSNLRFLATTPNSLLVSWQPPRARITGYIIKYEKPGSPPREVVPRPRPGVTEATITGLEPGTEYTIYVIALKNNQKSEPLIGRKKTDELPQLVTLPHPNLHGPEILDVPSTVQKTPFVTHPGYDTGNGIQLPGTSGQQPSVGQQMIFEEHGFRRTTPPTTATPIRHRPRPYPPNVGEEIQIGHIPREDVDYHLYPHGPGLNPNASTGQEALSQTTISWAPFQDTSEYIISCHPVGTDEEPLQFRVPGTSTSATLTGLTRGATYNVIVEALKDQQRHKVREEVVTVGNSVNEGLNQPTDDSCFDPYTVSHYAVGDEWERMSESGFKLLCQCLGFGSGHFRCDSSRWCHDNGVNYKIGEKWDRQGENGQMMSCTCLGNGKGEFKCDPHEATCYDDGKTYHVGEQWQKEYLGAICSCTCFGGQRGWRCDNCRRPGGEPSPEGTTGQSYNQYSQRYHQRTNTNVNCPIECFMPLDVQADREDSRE
# [4] = biological target: B2; assay: ELISA, bacteria on immobilised vitronectin
# [5] = biological target: B2; assay: ELISA with immobilised peptides
# [6] = biological target: B2; assay: ELISA, bacteria on peptide immobilised on extravidin coated plates
# control peptide SY-30 = control peptide SY-30 (N-terminal biotin); assay: ELISA with immobilised peptides
# control peptide GS-22 = biological target: B4; assay: ELISA with immobilised peptides
# [7] = biological target: B2; assay: ELISA, bacteria on immobilised biotinylated peptide
binder,measurement,setting,value
B1,binding result,[1],binds
B2,binding relative to the fully activated preparation of Vn,[2],~30%
same,binding result,[3],no binding (tested: 10% pooled human serum)
B3,binding result,[4],binds
B4,binding result,[5],no binding
B5,binding result,[6],binds
B6,binding relative to the fully activated preparation of Vn,[2],~30%
same,binding result,control peptide SY-30,no binding
same,binding result,control peptide GS-22,no binding
B7,binding result,[7],binds

# From patent US20130171184A1 (MACK TRUCKS, published 2013)
